Reference: PMC3168981 (Nature structural & molecular biology, 2011)

Target: T1, AlexaFluor488-labeled human PLCβ3-Δ892 R872A L876A L879A triple mutant (human, UniProt Q01970 10-891, R872A | L876A | L879A)
T1 sequence: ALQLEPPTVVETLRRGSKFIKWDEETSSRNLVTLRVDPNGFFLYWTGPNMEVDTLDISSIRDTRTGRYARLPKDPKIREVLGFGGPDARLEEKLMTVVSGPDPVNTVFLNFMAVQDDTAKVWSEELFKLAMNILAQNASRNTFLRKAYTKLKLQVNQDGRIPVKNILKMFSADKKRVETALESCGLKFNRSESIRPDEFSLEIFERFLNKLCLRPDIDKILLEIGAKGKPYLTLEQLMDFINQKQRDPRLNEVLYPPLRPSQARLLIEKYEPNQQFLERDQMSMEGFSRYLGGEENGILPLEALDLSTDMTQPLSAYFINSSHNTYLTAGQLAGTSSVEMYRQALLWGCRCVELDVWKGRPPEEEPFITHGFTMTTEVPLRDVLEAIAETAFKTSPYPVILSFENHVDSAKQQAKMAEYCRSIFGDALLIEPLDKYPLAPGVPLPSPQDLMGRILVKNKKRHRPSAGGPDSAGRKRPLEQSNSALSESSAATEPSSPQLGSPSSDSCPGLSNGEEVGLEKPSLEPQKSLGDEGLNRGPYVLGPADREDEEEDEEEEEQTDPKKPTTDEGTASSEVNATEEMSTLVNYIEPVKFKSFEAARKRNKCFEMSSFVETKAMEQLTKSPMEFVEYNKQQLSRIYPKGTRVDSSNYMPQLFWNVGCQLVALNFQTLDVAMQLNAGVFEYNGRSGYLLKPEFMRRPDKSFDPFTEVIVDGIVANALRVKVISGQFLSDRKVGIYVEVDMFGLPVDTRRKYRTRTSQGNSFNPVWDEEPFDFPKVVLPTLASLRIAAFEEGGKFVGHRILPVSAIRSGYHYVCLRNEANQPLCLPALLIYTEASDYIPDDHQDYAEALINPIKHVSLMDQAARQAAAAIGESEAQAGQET
Test: flow cytometry protein interaction assay

B1: Gαi/q chimera (murine Gαq with its N-terminal helix replaced with that of Gαi), biotinylated, AlF4-activated (other)
chain: MGCTLSAEDKAAVERSKMIDRNLREDGEKARRELKLLLLGTGESGKSTFIKQMRIIHGSGYSDEDKRGFTKLVYQNIFTAMQAMIRAMDTLKIPYKYEHNKAHAQLVREVDVEKVSAFENPYVDAIKSLWNDPGIQECYDRRREYQLSDSTKYYLNDLDRVADPSYLPTQQDVLRVRVPTTGIIEYPFDLQSVIFRMVDVGGQRSERRKWIHCFENVTSIMFLVALSEYDQVLVESDNENRMEESKALFRTIITYPWFQNSSVILFLNKKDLLEEKIMYSHLVDYFPEYDGPQRDAQAAREFILKMFVDLNPDSDKIIYSHFTCATDTENIRFVFAAVKDTILQLNLKEYNLV
modifications: biotinylated (sites not given)
Kd: 20.5 nM
